# B1: TPR t1 (parent)
# chain: GACCAAUCUGCCCUCAGAGCUCGAGAACAUCUUCGGAUGCAGAGGAGGCAGGCUUCGGUGGCGCGAUAGCGCCAACGUCCUCAACCUCCAAUGCAUCCCACCACAUGAUGAUGCCUGAAGAGCCUUGGUUUUUUG
# Variants of: B1
# Experiment: polymerase ribozyme fitness, log enrichment relative to wild type (log ratio); higher = more active; in vitro selection for triplet polymerase activity
# Summary of the method: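 The heterodimeric triplet polymerase ribozyme's subunits were each mutagenized into PCR-built libraries and transcribed. Every library was selected once, in triplicate, by annealing with a biotinylated primer, the partner subunit and triplets, incubating frozen at −7 °C, gel-excising extended constructs, capturing on streptavidin beads and running RT-PCR. Input and output libraries were Illumina-sequenced, with genotypes kept only at ≥10 input reads and ≥1 read per output. Fitness, from inverse-variance-weighted replicate averages, is the base-2 logarithm of genotype enrichment over wild-type enrichment.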
row,Variant,polymerase ribozyme fitness (log ratio)
1,A24G G71U U106A,-2.23
2,A46U C98G,-6.78
3,G36A G42A U54G C72U A75U,-2.79
4,G25A G47U A100U G110U U112A,-6.61
5,A26G U32C G60A C64U,-5.28
6,A43C A50C C86U C89A,-4.9
7,U87G U96A C102A,-2.66
8,G36A G52C,-2.17
9,A29U C31G C34G G44A G60A C114U,-6.84
10,A46U C62U A91U A103G U106A C114U,-5.16
11,C56G G58U A90U,-1.92
12,A41C U78G,-1.18
13,A46U C72G A83G G117A U133G,-3.93
14,C8A C22G A121U,-1.6
15,C72G C82G G93C,-1.73
16,U9A A26U C101G,-4.48
17,C11A C123G,1.15
18,U14G A27U C94A,-5.54
19,A5C C13A C34A A83U A108G C124A,-5.47
20,G61A C99U G113C,-5.29
21,C70G C82A G113C,-6.03

row,Variant,polymerase ribozyme fitness (log ratio)
1,C12U C64U C72A U87C,-0.223
2,C22A A66C G69U G93C,-5.35
3,G69A U106A,-2.76
4,C3U C15G C72A,-3.04
5,C40U G61A,-0.522
6,C11G C15U G25C G69C A111C A118G,-6.31
7,U21G A46U G69U G117C,-4.95
8,A105U G120U C123U,-2.19
9,C8A C12U C40U C86U,-0.152
10,C20G G60C,-4.55
11,A108G G135U,-2.4
12,C3U U9A C123A,1.32
13,U21A G61A C88A G110A,-4.74
14,C73U A83U G110A G128U,-4.9
15,A26C C49A C123U,-4.69
16,C8U G44C G63A,-0.547
17,G69C C70U,-3.87
18,A46U C62U C86A A100U C104A G110C U134G,-5.64
19,U21A C72G,-0.599
20,U7A C94U A95U C123U G127U,-1.38
21,C11U C20U C22A A91U G113A,-4.25

row,Variant,polymerase ribozyme fitness (log ratio)
1,A6U G17C A50C U87A,-4.69
2,G45A G60A,-1.47
3,G39C C89A C99U U106A A111G,-6
4,C15A U87G A91C U112C G128C G135U,-5.85
5,C34U U112C C124A,-1.63
6,G10U G44A G52U G122A C123U C124G U130G,-1.61
7,C4G C56U,-1.92
8,U9G A95G,0.394
9,C13A G52A C53U A75U U81G G120U C124U G127U,-1.17
10,U9C G17U U54C C79A C98U C101A,-5.9
11,C13U C31U A46G C72U,-4.32
12,C62G A100U G120U,-3.32
13,C12U A26U C34A G63A A90C C104U G113C,-6.57
14,A6G G10C U112A,-0.0126
15,C13G G113U,-2.94
16,C15U G127U,-2.39
17,U54G G69U A121C U126A,-0.813
18,C104U C123A U125G,1.28
19,A41G G63A,-1.32
20,C13U A24G G69U C104U A111U,-1.91
21,A18U A29G A43U G52A G60A C88U C94U,-5.06

row,Variant,polymerase ribozyme fitness (log ratio)
1,C12A G93A,-1.39
2,U78C C89A,-0.68
3,A105C G110U,-3.75
4,A6U U30C G39U C97U C104U,-4
5,C101G G110A,-4.15
6,G42A U81C U129G,-4.71
7,C13U A43C G71A C73G C82A C98G C102A A105U G117C,-6.52
8,G35C C123G,-2.8
9,C15U C124A,0.552
10,A18U U21A A24G U55G,-3.96
11,U92A C98U,-4.66
12,C11U G110U,-1.5
13,A43G G63A,-3.39
14,G39A A119U,-0.287
15,A90C U109A A118U,-5.95
16,G48A U81A C102U,-4.06
17,C62U C76G U78A,-0.661
18,G58U A75U C79A C89A G120C C123U,-4.72
19,A43G A74C,-2.19
20,G57C C104U,0.227
